Assay [1] concerns the target human Factor XIa (human) (UniProt P03951).
Assay [2] has as its target human plasma kallikrein (human) (UniProt P03952).
Assay [3] has as its target rabbit TF-FVIIa in the PT assay (rabbit thromboplastin with rabbit plasma) (rabbit).
Assay [4] has as its target tissue factor-Factor VIIa complex (human Factor VIIa with recombinant human tissue factor 1-243) (human) (UniProt P08709). The assay is described as follows: chromogenic enzyme inhibition assay under equilibrium conditions; apparent Ki*.
Assay [5] has the same target. As to the kind of experiment: chromogenic enzyme inhibition assay, FVIIa 10 nM, TF1-243 50 nM; apparent Ki* by fit to the tight-binding equation.
For assay [6] the target is unchanged. The assay is described as follows: apparent Ki* for TF-FVIIa; method not told at this place.

Take “APPI, Alzheimer's amyloid β-protein precursor inhibitor”: the fold prolongation of clotting time, APTT assay in normal human plasma (fold prolongation at 40 µM inhibitor) in assay [1] and in assay [2] was 3.6 in each case. Moreover, the fold increase of clotting time over baseline, PT assay in rabbit plasma (fold increase over baseline at 40 µM) in assay [3] is 1.4. Further, the Ki in assay [4] was 301 nM; in assay [5], 300 nM.

As for first Kunitz domain of TFPI, the Ki in assay [6] was 600 nM.

For the origin of these results see US5834244.
